# In IntAct's records for PubMed 25803835:
# B1: Serine/threonine-protein kinase TBK1 (Homo sapiens), Q9UHD2 (parent)
# chain: MQSTSNHLWLLSDILGQGATANVFRGRHKKTGDLFAIKVFNNISFLRPVDVQMREFEVLKKLNHKNIVKLFAIEEETTTRHKVLIMEFCPCGSLYTVLEEPSNAYGLPESEFLIVLRDVVGGMNHLRENGIVHRDIKPGNIMRVIGEDGQSVYKLTDFGAARELEDDEQFVSLYGTEEYLHPDMYERAVLRKDHQKKYGATVDLWSIGVTFYHAATGSLPFRPFEGPRRNKEVMYKIITGKPSGAISGVQKAENGPIDWSGDMPVSCSLSRGLQVLLTPVLANILEADQEKCWGFDQFFAETSDILHRMVIHVFSLQQMTAHKIYIHSYNTATIFHELVYKQTKIISSNQELIYEGRRLVLEPGRLAQHFPKTTEENPIFVVSREPLNTIGLIYEKISLPKVHPRYDLDGDASMAKAITGVVCYACRIASTLLLYQELMRKGIRWLIELIKDDYNETVHKKTEVVITLDFCIRNIEKTVKVYEKLMKINLEAAELGEISDIHTKLLRLSSSQGTIETSLQDIDSRLSPGGSLADAWAHQEGTHPKDRNVEKLQVLLNCMTEIYYQFKKDKAERRLAYNEEQIHKFDKQKLYYHATKAMTHFTDECVKKYEAFLNKSEEWIRKMLHLRKQLLSLTNQCFDIEEEVSKYQEYTNELQETLPQKMFTASSGIKHTMTPIYPSSNTLVEMTLGMKKLKEEMEGVVKELAENNHILERFGSLTMDGGLRNVDCL
# partner: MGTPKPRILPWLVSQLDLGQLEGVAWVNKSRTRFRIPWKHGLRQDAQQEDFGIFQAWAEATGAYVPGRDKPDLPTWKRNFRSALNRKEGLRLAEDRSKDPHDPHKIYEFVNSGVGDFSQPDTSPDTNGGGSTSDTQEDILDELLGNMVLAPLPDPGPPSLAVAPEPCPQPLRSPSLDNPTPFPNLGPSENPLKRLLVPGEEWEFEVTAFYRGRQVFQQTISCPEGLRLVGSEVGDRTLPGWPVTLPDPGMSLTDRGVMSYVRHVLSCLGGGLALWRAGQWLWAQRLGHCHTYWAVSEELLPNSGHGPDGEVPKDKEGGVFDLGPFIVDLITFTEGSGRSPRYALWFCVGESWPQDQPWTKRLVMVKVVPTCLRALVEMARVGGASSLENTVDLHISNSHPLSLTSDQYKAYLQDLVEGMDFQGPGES
# B2: Serine/threonine-protein kinase TBK1 (Homo sapiens), Q9UHD2 (parent)
# chain: B1 chain
# Variants of: B1
# Conditions: with irf3_human IRF3, Q14653
row,Variant,effect of a mutation on the interaction
1,R357Q,disrupting interaction strength
2,E696K,decreasing interaction strength
3,R47H,increasing interaction strength
4,M559R,disrupting interaction strength
5,R308Q,decreasing interaction strength

# Variants of: B2
# Conditions: with optn_human OPTN
row,Variant,effect of a mutation on the interaction
1,R308Q,with no effect
2,R357Q,decreasing interaction strength
3,R47H,increasing interaction strength
4,M559R,disrupting interaction strength
5,K38A,with no effect

# Variants of: B2
# Conditions: with optn_human OPTN
# Remark: another data set of the same source
row,Variant,effect of a mutation on the interaction
1,R357Q,disrupting interaction strength
2,E696K,disrupting interaction strength
